Measured values: patent US11814447B2, “Peptide ligands for binding to EphA2” (BICYCLERD LIMITED, priority 2018, dated 2023)
Starred links: 1 amine or outer side, 2 acyl side, 3 side chain; linkers in the order of their positions; H or OH if unused. Positions of bridges follow the written chain, without caps; N, C: chain ends. Non-standard residues stand in square brackets, D forms with d. No end group written: not given here. ThiAz = 3-(1,2,4-triazol-1-yl)-alanine, O=C([C@H](Cn1cncn1)N[*:1])[*:2]; TATA = O=C(CC[*:1])N1CN(C(=O)CC[*:2])CN(C(=O)CC[*:3])C1; Ala(2-furyl) = N[C@@H](Cc1ccco1)C(=O)O; 1Nal = N[C@@H](Cc1cccc2ccccc12)C(=O)O; TBMB = c1c(C[*:1])cc(C[*:3])cc1C[*:2]; hArg = N=C(N)NCCCC[C@H](N)C(=O)O; 2Thi = N[C@@H](Cc1cccs1)C(=O)O; Tle = CC(C)(C)[C@H](N)C(=O)O; Pip = O=C(O)[C@@H]1CCCCN1; Aze = O=C(O)[C@@H]1CCN1; Aib = CC(C)(N)C(=O)O; azaGly = NNC(=O)O; βAla = NCCC(=O)O; Sar = CNCC(=O)O

Target: T1, Human EphA2 (Ecto) (Human, UniProt P29317 24-537)
T1 construct: extracellular domain; in-house)
Assay: FP competition; tracer Reference Compound C
Protocol: (§1) Peptides without a fluorescent tag were tested in competition with a peptide with a fluorescent tag and a known Kd (Table 2). Peptides were diluted to an appropriate concentration in assay buffer as described in the direct binding assay with a maximum of 5% DMSO, then serially diluted 1 in 2. […] Measurements were conducted as for the direct binding assay, however the gain was determined prior to the first measurement. Data analysis was in Systat Sigmaplot version 12.0 where the mP values were fit to a user defined cubic equation to generate a Ki value: […]
T1 sequence (P29317 24-537): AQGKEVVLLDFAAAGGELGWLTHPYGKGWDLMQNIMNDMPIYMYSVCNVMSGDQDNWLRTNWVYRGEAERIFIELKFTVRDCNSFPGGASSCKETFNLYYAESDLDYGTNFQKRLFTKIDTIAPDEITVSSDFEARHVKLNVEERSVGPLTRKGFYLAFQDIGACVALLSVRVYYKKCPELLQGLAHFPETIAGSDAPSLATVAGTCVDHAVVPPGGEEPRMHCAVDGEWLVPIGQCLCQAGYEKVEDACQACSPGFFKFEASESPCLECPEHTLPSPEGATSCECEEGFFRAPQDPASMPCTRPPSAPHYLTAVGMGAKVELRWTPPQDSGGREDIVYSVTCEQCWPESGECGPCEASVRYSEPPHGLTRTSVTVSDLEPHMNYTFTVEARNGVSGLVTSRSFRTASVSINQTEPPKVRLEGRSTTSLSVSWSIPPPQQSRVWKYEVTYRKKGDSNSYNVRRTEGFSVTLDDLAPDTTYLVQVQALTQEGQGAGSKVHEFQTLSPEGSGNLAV

Ki [nM] | Binder
70.8 | DLRCGGDPRCAYMNVCA (linker 4-10-16 via TATA) [Bicycle Compound Number 18 (TATA scaffold), DLRCGGDPRCAYMNVCA]
85 | [βAla][Sar][Sar][Sar][Sar][Sar][Sar][Sar][Sar][Sar][Sar]ACVPDRRCAYMNVC (linker 13-19-25 via TATA) [Bicycle Compound Number 17 (TATA scaffold), (β-Ala)-Sar10-ACVPDRRCAYMNVC]
94.8 | SRPCVIDSRCAYMNVCA (linker 4-10-16 via TATA) [Bicycle Compound Number 19 (TATA scaffold), SRPCVIDSRCAYMNVCA]
70 | ACVPDRRCAYMNVCA (linker 2-8-14 via TATA) [Bicycle Compound Number 16 (TATA scaffold), ACVPDRRCAYMNVCA]
278 | ACMNDWWCAMGWKCA (linker 2-8-14 via TATA) [Bicycle Compound Number 15 (TATA scaffold), ACMNDWWCAMGWKCA]
57 | ESRCSPDARCAYMNVCA (linker 4-10-16 via TATA) [Bicycle Compound Number 20 (TATA scaffold), ESRCSPDARCAYMNVCA]

Target: T2, Human EphA2 (Ecto) (Human, UniProt P29317 24-537)
T2 construct: extracellular domain
Assay: FP competition, tracer Compound 18
Protocol: as §1
T2 sequence (P29317 24-537): as above

Binder | Ki [nM]
Ac-[Sar][Sar]A[dD]DVTCP[1Nal]G[Aib]FWCP[Tle]N[hArg]PGC (linker 8-15-22 via TBMB) [Bicycle Compound 284] | 3.8
Ac-[Sar][Sar]AH[dD]V[Aib]CPWGPFWCPVNRPGC (linker 8-15-22 via TBMB) [Bicycle Compound 213] | 1.9
[βAla][Sar][Sar][Sar][Sar][Sar][Sar][Sar][Sar][Sar][Sar]HDVPCPWGPFWCPVNRPGC (linker 16-23-30 via TBMB) [Bicycle Compound 223] | 1.29
Ac-[Sar][Sar]A[dH]DVPCPWG[Aib]FWCP[Tle]NR[Aib]GC (linker 8-15-22 via TBMB) [Bicycle Compound 233] | 4.8
Ac-[Sar][Sar]AH[dD][Tle]PCPWGPFWCPVNRPGC (linker 8-15-22 via TBMB) [Bicycle Compound 211] | 3.1
Ac-[Sar][Sar]AH[dD]V[Sar]CPWGPFWCPVNRPGC (linker 8-15-22 via TBMB) [Bicycle Compound 212] | 4.95
Ac-[Sar][Sar]A[dH]DVPCP[1Nal]GPFWCP[Tle]N[hArg]PGC (linker 8-15-22 via TBMB) [Bicycle Compound 230] | 1.8
[Sar][Sar]AHDV[Pip]CPWGPFWCPVNRPGC (linker 8-15-22 via TBMB) [Bicycle Compound 222] | 3.4
[Sar][Sar]AHD[Aib]PCPWGPFWCPVNRPGC (linker 8-15-22 via TBMB) [Bicycle Compound 216] | 2.77
Ac-[Sar][Sar]AHDVPCPWGPFWCPVNRPGC (linker 8-15-22 via TBMB) [Bicycle Compound 193] | 0.59
[Sar][Sar]AHEVPCPWGPFWCPVNRPGC (linker 8-15-22 via TBMB) [Bicycle Compound 207] | 1.3
[Sar][Sar]AH[dE]VPCPWGPFWCPVNRPGC (linker 8-15-22 via TBMB) [Bicycle Compound 208] | 2
Ac-[Sar][Sar]A[dD]DVPCPWGPFWCPVNRPGC (linker 8-15-22 via TBMB) [Bicycle Compound 200] | 4.1
[Sar][Sar]AHAVPCPWGPFWCPVNRPGC (linker 8-15-22 via TBMB) [Bicycle Compound 205] | 1.8
[Sar][Sar]A[dA]DVPCPWGPFWCPVNRPGC (linker 8-15-22 via TBMB) [Bicycle Compound 199] | 3.35
[Sar][Sar]AHDAPCPWGPFWCPVNRPGC (linker 8-15-22 via TBMB) [Bicycle Compound 214] | 22.5
[Sar][Sar]AHDVACPWGPFWCPVNRPGC (linker 8-15-22 via TBMB) [Bicycle Compound 218] | 1.27
Ac-[Sar][Sar]A[dD]DVTCPWGPFWCPVNRPGC (linker 8-15-22 via TBMB) [Bicycle Compound 281] | 5.78
[Sar][Sar]AHDV[dA]CPWGPFWCPVNRPGC (linker 8-15-22 via TBMB) [Bicycle Compound 219] | 15
[Sar][Sar]AHD[dA]PCPWGPFWCPVNRPGC (linker 8-15-22 via TBMB) [Bicycle Compound 215] | 26
Ac-[Sar][Sar]A[dH]DVPCPWGPAWCPVNRPGC (linker 8-15-22 via TBMB; also: A13 (ΨAla): reduced amide backbone bond) [Bicycle Compound 228] | 210
[Sar][Sar]AH[dA]VPCPWGPFWCPVNRPGC (linker 8-15-22 via TBMB) [Bicycle Compound 206] | 8.3
[Sar][Sar]AHDV[Aze]CPWGPFWCPVNRPGC (linker 8-15-22 via TBMB) [Bicycle Compound 221] | 3.1
Ac-[Sar][Sar]A[dH]D[Tle]PCPWGPFWCPVNRPGC (linker 8-15-22 via TBMB) [Bicycle Compound 204] | 2.15
[Sar][Sar]AH[dD]VPCPWGPFWCPVNRPGC (linker 8-15-22 via TBMB) [Bicycle Compound 209] | 1.25
AHDVPCP[1Nal]G[Aib]FWCP[Tle]NR[Aib]GC (linker 6-13-20 via TBMB) [Bicycle Compound 192] | 1.75

Further lines, results first:

Ki [nM] | Binder
0.49 | [Sar][Sar]AHD[Tle]PCPWGPFWCPVNRPGC (linker 8-15-22 via TBMB) [Bicycle Compound 217]
0.49 | [Sar][Sar]A[Ala(2-furyl)]DVPCPWGPFWCPVNRPGC (linker 8-15-22 via TBMB) [Bicycle Compound 203]
0.84 | [βAla][Sar][Sar][Sar][Sar][Sar][Sar][Sar][Sar][Sar][Sar]H[dD]VPCPWGPFWCPVNRPGC (linker 16-23-30 via TBMB) [Bicycle Compound 226]
0.87 | Ac-[Sar][Sar]A[dD]DVTCP[1Nal]GPFWCPVNRPGC (linker 8-15-22 via TBMB) [Bicycle Compound 282]
0.6 | [Sar][Sar]A[2Thi]DVPCPWGPFWCPVNRPGC (linker 8-15-22 via TBMB) [Bicycle Compound 201]
0.75 | Ac-[Sar][Sar]AH[dD]VPCP[1Nal]GPFWCP[Tle]N[hArg]PGC (linker 8-15-22 via TBMB) [Bicycle Compound 227]
1.2 | [Sar][Sar]A[dH]DVPCPWGPFWCPVNRPGC (linker 8-15-22 via TBMB) [Bicycle Compound 197]
0.95 | Ac-[Sar][Sar]A[dH]DVPCPWGPFWCPVNRPGC (linker 8-15-22 via TBMB) [Bicycle Compound 196]
0.83 | [Sar][Sar]AHDV[Aib]CPWGPFWCPVNRPGC (linker 8-15-22 via TBMB) [Bicycle Compound 220]
1.1 | Ac-[Sar][Sar]AH[dD]VPCPWGPFWCPVNRPGC (linker 8-15-22 via TBMB) [Bicycle Compound 210]
1.01 | Ac-[Sar][Sar]AADVPCPWGPFWCPVNRPGC (linker 8-15-22 via TBMB) [Bicycle Compound 195]
0.7 | [Sar][Sar]A[ThiAz]DVPCPWGPFWCPVNRPGC (linker 8-15-22 via TBMB) [Bicycle Compound 202]
1.2 | Ac-[Sar][Sar][dA]HDVPCPWGPFWCPVNRPGC (linker 8-15-22 via TBMB) [Bicycle Compound 194]
0.66 | Ac-[Sar][Sar]H[dD]VPCPW[azaGly]PFWCPVNRPGC (linker 7-14-21 via TBMB) [Bicycle Compound 267]
0.28 | Ac-[Sar][Sar]A[dD]DVTCP[1Nal]GPF[1Nal]CPVNRPGC (linker 8-15-22 via TBMB) [Bicycle Compound 283]
